Source: publication PMC11813800, “A concept of natural genome reconstruction.Part 2. Effect of extracellular double-stranded DNA fragments on hematopoietic stem cells”

How the values were obtained:
CD34 = CD34 (UniProt P28906 32-290); experiment: EMSA; 10 mM PBS buffer, 37 °C, various ratios and times; native PAGE (6 % or 10 % tris-borate); pH not given; settings: label: P32; blunt
SLAMF5 (CD84) = target: T1, SLAMF5 (CD84) (UniProt Q9UIB8 22-225); experiment: as above; settings: label: P32; blunt
T1 sequence: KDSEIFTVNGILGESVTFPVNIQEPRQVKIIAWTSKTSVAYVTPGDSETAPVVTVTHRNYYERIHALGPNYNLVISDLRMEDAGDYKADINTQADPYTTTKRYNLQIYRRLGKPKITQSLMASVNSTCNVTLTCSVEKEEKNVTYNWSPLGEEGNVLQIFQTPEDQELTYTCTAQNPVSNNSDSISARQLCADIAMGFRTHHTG

Sequence of CD34 (P28906 32-290): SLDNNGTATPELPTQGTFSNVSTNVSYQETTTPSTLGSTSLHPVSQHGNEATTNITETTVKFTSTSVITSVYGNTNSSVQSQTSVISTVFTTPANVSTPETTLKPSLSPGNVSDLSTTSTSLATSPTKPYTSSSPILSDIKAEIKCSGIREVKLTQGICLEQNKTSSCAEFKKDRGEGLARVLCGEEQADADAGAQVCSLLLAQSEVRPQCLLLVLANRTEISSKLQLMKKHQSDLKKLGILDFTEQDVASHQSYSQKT

B1: (TTAGGG)9 telomeric repeat, 54 bp (dsDNA)
DNA 1: TTAGGGTTAGGGTTAGGGTTAGGGTTAGGGTTAGGGTTAGGGTTAGGGTTAGGG
DNA 2: CCCTAACCCTAACCCTAACCCTAACCCTAACCCTAACCCTAACCCTAACCCTAA
**Q.** Does B1 bind (CD34)?
**A.** binds

**Q.** Does B1 bind (SLAMF5 (CD84))?
**A.** binds
